The values that follow come from patent publication US6544767B1, “Cathespin O2 protease” (Axys Pharmaceuticals, Inc., priority 1994, dated 2003).

The test system of series [1] is Soluble calf skin Type I collagen. The series can be described thus: Collagenase activity, SDS-PAGE. Type of series: biochemical. On the procedure: (§1) FIGS. 9A and 9B depict SDS PAGE of type I collagen (soluble calf skin collagen) after digestion with recombinant human cathepsin O2 and L and bovine trypsin. FIG. 9A: Collagenase activity: Digestion of soluble calf skin collagen at 28° C. and at pH 4.0, 5.0, 5.5, 6.0, 6.5, 7.0 by human cathepsins O2, S and L (each 50 nM) for 12 hours. The reaction was stopped by addition of 10 μM E-64. Untreated soluble collagen was used as standard (S). FIG. 9B: Gelatinase activity: Digestion of denatured soluble calf skin collagen (10 min heated at 70° C.) at 28° C. and at pH 4.0, 5.0, 5.5, 6.0, 6.5, 7.0 by human cathepsin O2 (0.1 nM), cathepsin L (0.2 nM) and human cathepsin S (1 nM). Molecular mass standards are indicated in the left lane.
(§2) Soluble calf skin Type I collagen was diluted to 0.4 mg/ml into 100 mM-sodium acetate buffer, pH 4.5, 5.0, 5.5, in 100 mM-potassium phosphate buffer, pH 6.0, 6.5 and 100 mM-Tris/HCl, pH 7.0 containing 2 mM-dithiotreitol/2 mM-EDTA. Human cathepsins O2, S and L and bovine trypsin (Sigma) were incubated at concentrations of 100 nM enzyme concentration for 10 hours at 28° C. To measure the gelatinase activity of cathepsins O2 and S, Type I collagen was heated for 10 min at 70° C. prior to incubation with the proteases. In the presence of 1 nM proteases the reaction mix was incubated for 30 min at 28° C. The samples were subjected to SDS polyacrylamide electrophoresis using 4-20% Tris-glycine gels (Novex, San Diego, Calif.).

The conditions of series [2]: from literature; cited from earlier work.
Series [3] can be described thus: pH activity profile. Type of series: biochemical. As to conditions: for pH optimum: calculated from (pK1 + pK2)/2. On the procedure:
Initial rates of substrate hydrolysis were monitored as described above. The pH activity profile of human cathepsin O2 was obtained at 1 μM substrate (Z-FR-MCA) concentration ([S]<<Km where the initial rate vo is directly proportional to the kcat/Km value). The following buffers were used for the pH activity profile: 100 mM sodium citrate (pH 2.8-5.6) and 100 mM sodium phosphate (pH 5.8-8.0). All buffers contained 1 mM EDTA and 0.4 M NaCl to minimize the variation in ionic strength. A three protonation model (Khouri et al., Biochem. 30:8929-8936 (1991)) was used for least square regression analysis of the pH activity data. The data were fitted to the following equation.
(kcat/Km)obs=(kcat/Km)/([H^+]/K1+1+K2/[H^+])

Series [4] can be described thus: pH stability at 37° C. Type of series: physicochemical. On the procedure: The residual activity was measured in time intervals using the above described fluorimetric substrate assay. The pH stability of cathepsins O2, S and L was studied at three different pH values. Recombinant human cathepsins O2, S and L were incubated at 37° C. in 100 mM sodium acetate buffer, pH 5.5, in 100 mM potassium phosphate buffer, pH 6.5 and in 100 mM Tris/HCl, pH 7.5 containing 5 mM dithiothreitol and 2.5 mM EDTA. Incubating for 0.5, 1, 2 and 4 hours, the activity remaining was determined using 5 μM Z-FR-MCA for cathepsin O2 (100 mM potassium phosphate buffer, pH 6.5) and cathepsin L (100 mM sodium acetate buffer, pH 5.5) and 5 μM Z-VVR-MCA for cathepsin S (100 mM potassium phosphate buffer, pH 6.5).

Series [5] relates to denatured soluble calf skin collagen. The series can be described thus: Gelatinase activity, SDS-PAGE. Type of series: biochemical. On the procedure: as §1, §2
Series [6] concerns [^3H] elastin. The series can be described thus: Elastin degradation assay. Type of series: biochemical. On the procedure:
Elastin (2 mg) was incubated in I ml buffer containing 2.5 mM dithiothreitol, 2.5 mM EDTA and 0.05% Triton X-100 for the cathepsin O2, S and L assays. Aliquots were withdrawn after 10, 20, 30, 50, 90, 120 and 180 min, centrifuged for 1 min at 14,000×g and counted in a 24-well plate containing scintillation fluid with Liquid Scintillation counter (1450 Microbeta Plus, Wallac/Pharmacia). Concentrations of human cathepsins O2, S and L and bovine elastase in the elastin degradation assay were 65 nM, 28 nM, 80 nM and 80 nM, respectively. To determine the pH effect on protease activity the digests were carried out at pH 4.5 and 5.5 (100 mM sodium acetate, 2.5 mM each dithiothreitol and EDTA, 0.05% Triton X-100), and at pH 7.0 (100 mM Tris/HCl, 2.5 mM each of dithiothreitol and EDTA, 0.05% Triton X-100). Pancreatic bovine elastase (Boehringer, Mannheim, Ind.) was assayed under the same conditions except that neither dithiothreitol nor EDTA was added to the incubation mixture.

Like-named read-outs stand apart in the source and are kept apart here. Where only a bound is given, the exact number is not on record here.

B1: cathepsin S: recombinant human cathepsin S expressed using the baculovirus expression system (protein)
chain: LPDSVDWREKGCVTEVKYQGSCGACWAFSAVGALEAQLKLKTGKLVSLSAQNLVDCSTEKYGNKGCNGGFMTTAFQYIIDNKGIDSDASYPYKAMDQKCQYDSKYRAATCSKYTELPYGREVDLKEAVANKGPVSVGVDARHPSFFLYRSGVYYEPSCTQNVNHGVLVVGYGDLNGKEYWLVKNSWGHNFGEEGYIRMARNKGNHCGIASFPSYPEI
Take B1: the collagenolytic activity entry in series [1] is on record as “very weak collagenolytic activity”. Also, the “pK1 of pH activity profile” value in series [2] is recorded as 4.49 ± 0.03. The “pK2 of pH activity profile” value in series [2] is recorded as 7.82 ± 0.03. In addition, the “width of the pH profile” value in series [2] is on record as 3.35. For the same molecule, the pH optimum in series [3] was 6.1. For the same molecule, the “Residual activity (%)” value in series [4] (pH 5.5, 37° C., 0.5 hr) was found to be 100%; in series [4] (pH 5.5, 37° C., 1 hr), 95%; in series [4] (pH 5.5, 37° C., 2 hr), 92%; in series [4] (pH 5.5, 37° C., 4 hr), 83%; in series [4] (pH 6.5, 37° C., 0.5 hr) it was 100%; in series [4] (pH 6.5, 37° C., 1 hr) it was 100%. In addition, the “Residual activity (%)” value was determined as 94% in series [4] (pH 6.5, 37° C., 2 hr); 71% in series [4] (pH 6.5, 37° C., 4 hr); 91% in series [4] (pH 7.5, 37° C., 0.5 hr); 72% in series [4] (pH 7.5, 37° C., 1 hr); 61% in series [4] (pH 7.5, 37° C., 2 hr); 60% in series [4] (pH 7.5, 37° C., 4 hr). Besides, in series [5], the gelatinase activity result is “significant weaker activity than the cathepsins O2 and L”. The elastinolytic activity in series [6] (pH 4.5) is 146 mg/min/μmol enzyme; in series [6] (pH 5.5), 102 mg/min/μmol enzyme; in series [6] (pH 7.0), 55 mg/min/μmol enzyme.

B2: papain: cysteine protease, literature comparison (protein, UniProt P00784 134-345, looked up)
Papain: IPEYVDWRQKGAVTPVKNQGSCGSCWAFSAVVTIEGIIKIRTGNLNEYSEQELLDCDRRSYGCNGGYPWSALQLVAQYGIHYRNTYPYEGVQRYCRSREKGPYAAKTDGVRQVQPYNEGALLYSIANQPVSVVLEAAGKDFQLYRGGIFVGPCGNKVDHAVAAVGYGPNYILIKNSWGTGWGENGYIRIKRGTGNSYGVCGLYTSSFYPVKN
For B2, in series [2], the “pK1 of pH activity profile” value was 4.54 ± 0.29, the “pK1′ of pH activity profile” value is recorded as 3.58 ± 0.29, the “pK2 of pH activity profile” value is listed as 8.45 ± 0.02 and the “width of the pH profile” value was 3.91. In addition, in series [3], the pH optimum is 6.5.

B3: cathepsin O2: recombinant human cysteine protease of the papain family, mature enzyme expressed in Sf9 cells (protein)
chain: APDSVDYRKKGYVTPVKNQGQCGSCWAFSSVGALEGQLKKKTGKLLNLSPQNLVDCVSENDGCGGGYMTNAFQYVQKNRGIDSEDAYPYVGQEESCMYNPTGKAAKCRGYREIPEGNEKALKRAVARVGPVSVAIDASLTSFQFYSKGVYYDESCNSDNLNHAVLAVGYGIQKGNKHWIIKNSWGENWGNKGYILMARNKNNACGIANLASFPKM
As for B3, the “degradation of Type I collagen” value in series [1] (between pH 5.0 and 6.0 at 28° C.) is recorded as “extensively degraded”; in series [1] (pH 4.5 and pH 7.0, 28° C.) it was “much less pronounced”. Also, the “pK1′ of pH activity profile” value in series [3] was found to be 3.43 ± 0.05. The “width of the pH profile” value in series [3] was 4.15. Besides, the pH optimum in series [3] was 6.1. The “pK1 of pH activity profile” value in series [3] (listed as Human cathepsin O2) was determined as 4.0; in series [3] (listed as human cathepsin O2), 4.00 ± 0.02. The “pK2 of pH activity profile” value in series [3] (listed as Human cathepsin O2) came to 8.13; in series [3] (listed as human cathepsin O2), 8.13 ± 0.01. Also, the “Residual activity (%)” value in series [4] (pH 5.5, 37° C., 0.5 hr) is 91%; in series [4] (pH 5.5, 37° C., 1 hr) it was 88%; in series [4] (pH 5.5, 37° C., 2 hr), 70%; in series [4] (pH 5.5, 37° C., 4 hr) it was 52%; in series [4] (pH 6.5, 37° C., 0.5 hr), 85%; in series [4] (pH 6.5, 37° C., 2 hr) it was 22%. The “Residual activity (%)” value was found to be 15% in series [4] (pH 6.5, 37° C., 4 hr); 11% in series [4] (pH 7.5, 37° C., 0.5 hr); 0% in series [4] (pH 7.5, 37° C., 1 hr); 0% in series [4] (pH 7.5, 37° C., 2 hr); 0% in series [4] (pH 7.5, 37° C., 4 hr). For the same molecule, in series [5], the gelatinase activity entry is listed as “powerful gelatinase activity”. The “time to total degradation of denatured collagen” value in series [5] (0.1 nM enzyme, pH range of 5.0 to 7.0) is on record as ≤ 30 min. For the same molecule, in series [6], the “pH of maximal elastinolytic activity” value was found to be 5.5. In addition, the “elastinolytic activity relative to pancreatic elastase” value in series [6] (neutral pH) was 2.4 times. For the same molecule, the figures for the elastinolytic activity in series [6] (pH 4.5), in series [6] (pH 5.5) and in series [6] (pH 7.0) were 245 mg/min/μmol enzyme, 286 mg/min/μmol enzyme and 170 mg/min/μmol enzyme, respectively. Further, in series [6] (pH 5.5), the “elastinolytic activity relative to cathepsin L” value was ~9 times.

B4: trypsin: bovine trypsin (Sigma) (protein, UniProt P00760 24-246, looked up)
Serine protease 1: IVGGYTCGANTVPYQVSLNSGYHFCGGSLINSQWVVSAAHCYKSGIQVRLGEDNINVVEGNEQFISASKSIVHPSYNSNTLNNDIMLIKLKSAASLNSRVASISLPTSCASAGTQCLISGWGNTKSSGTSYPDVLKCLKAPILSDSSCKSAYPGQITSNMFCAGYLEGGKDSCQGDSGGPVVCSGKLQGIVSWGSGCAQKNKPGVYTKVCNYVSWIKQTIASN
Consider B4, for which the collagenolytic activity entry in series [1] is “No degradation”.
